Laboratory results: paper PMC9352680, “A comprehensive thermodynamic model for RNA binding by the Saccharomyces cerevisiae Pumilio protein PUF4”

T1: PUF4 RNA-binding domain (Saccharomyces cerevisiae, UniProt P25339 537-888)
T1 sequence: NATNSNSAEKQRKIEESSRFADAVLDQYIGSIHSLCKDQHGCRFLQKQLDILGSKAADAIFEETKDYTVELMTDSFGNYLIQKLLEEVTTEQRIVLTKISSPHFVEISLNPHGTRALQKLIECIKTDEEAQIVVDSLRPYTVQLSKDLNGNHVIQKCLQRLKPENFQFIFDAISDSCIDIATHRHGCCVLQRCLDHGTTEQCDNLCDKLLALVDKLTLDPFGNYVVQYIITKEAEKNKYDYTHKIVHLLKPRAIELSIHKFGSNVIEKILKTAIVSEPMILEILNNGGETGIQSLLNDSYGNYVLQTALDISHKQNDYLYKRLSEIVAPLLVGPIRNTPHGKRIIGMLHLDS


Molecular target: T1, PUF4 RNA-binding domain
Assay: Mg; RNA-MaP; 20 mM Na-HEPES pH 7.4, 30 mM KOAc, 0.75 mM MgCl2, 0.1% Tween-20, 5% glycerol, 0.1 mg/mL BSA, 2 mM DTT; 25 C; 0.0125-409.6 nM protein
Details: tags: N-His6-TEV cleaved; C-SNAP kept, Cy3B-labelled; label: tethered on chip by stalled RNA polymerase

Binder	Kd [nM]
UCUCUUCUUCUCUGUAUAUAUAUCUCUU (ssRNA) [Ie_S1_P3E.2_K3.1_C3.2_H3.1_[+1CTCT]_A3.1_F3.1_T3.2]	4.16
UCUCUUCUUGUCUUAUAUAUAUCUCUU (ssRNA) [Ie_S1_P3E.2_K3.1_C3.2_H3.1_[+3CTT]_A3.1_F3.1_T3.2]	95.5
UCUCUUCUUGUUCUAUAUAUAUCUCUU (ssRNA) [Ie_S1_P3E.2_K3.1_C3.2_H3.1_[+3TCT]_A3.1_F3.1_T3.2]	53.2
UCUCUUCUUCCGUAUAUAUAUCUCUU (ssRNA) [Ie_S1_P3E.2_K3.1_C3.2_H3.1_[+1CC]_A3.1_F3.1_T3.2]	1270
UCUCUUCUCUCUUUGUAUAUAUAUCUCUU (ssRNA) [Ie_S1_P3E.2_K3.1_C3.2_[+-2TCTCT]_H3.1_A3.1_F3.1_T3.2]	4.28
UCUCUUCUUGUUUUAUAUAUAUCUCUU (ssRNA) [Ie_S1_P3E.2_K3.1_C3.2_H3.1_[+2TTT]_A3.1_F3.1_T3.2]	27.9
UCUCUUCUCUCUGUAUAUAUAUCUCUU (ssRNA) [Ie_S1_P3E.2_K3.1_C3.2_[+-1CTC]_H3.1_A3.1_F3.1_T3.2]	4.2
UCUCUUUGUAUGGUUAUCUCUU (ssRNA) [Ib_S1_P5E.1_K5.1_C5.1_H5.1_A5.1_[T6G]_[A7G]_F5.1_T5.1]	37.1
UCUCUUCUUGUUAUAUAUAUCUCUU (ssRNA) [Ie_S1_P3E.2_K3.1_C3.2_H3.1_[+2T]_A3.1_F3.1_T3.2]	29.7
UCUCUUCUUCUCGUAUAUAUAUCUCUU (ssRNA) [Ie_S1_P3E.2_K3.1_C3.2_H3.1_[+1CTC]_A3.1_F3.1_T3.2]	449
UCUCUUCUCUCUUGUAUAUAUAUCUCUU (ssRNA) [Ie_S1_P3E.2_K3.1_C3.2_[+-2TCTC]_H3.1_A3.1_F3.1_T3.2]	4.58
UCUCUUCUCCUGUAUAUAUAUCUCUU (ssRNA) [Ie_S1_P3E.2_K3.1_C3.2_[+-1CC]_H3.1_A3.1_F3.1_T3.2]	4.99
UCUCUUCUUCCUUUGUAUAUAUAUCUCUU (ssRNA) [Ie_S1_P3E.2_K3.1_C3.2_[+-2TTCCT]_H3.1_A3.1_F3.1_T3.2]	6.01
UCUCUUUGUAAUGUUAUCUCUU (ssRNA) [Ib_S1_P5E.1_K5.1_C5.1_H5.1_A5.1_[T5A]_[A7G]_F5.1_T5.1]	12.7
UCUCUUCUUCCUCGUAUAUAUAUCUCUU (ssRNA) [Ie_S1_P3E.2_K3.1_C3.2_H3.1_[+1CCTC]_A3.1_F3.1_T3.2]	475
UCUCUUCUUUCUCUGUAUAUAUAUCUCUU (ssRNA) [Ie_S1_P3E.2_K3.1_C3.2_H3.1_[+1TCTCT]_A3.1_F3.1_T3.2]	4.87
UCUCUUCUUUUUGUAUAUAUAUCUCUU (ssRNA) [Ie_S1_P3E.2_K3.1_C3.2_H3.1_[+1TTT]_A3.1_F3.1_T3.2]	5.49
UCUCUUCUUUCUGUAUAUAUAUCUCUU (ssRNA) [Ie_S1_P3E.2_K3.1_C3.2_H3.1_[+1TCT]_A3.1_F3.1_T3.2]	3.95
UCUCUUCUUCUGUAUAUAUAUCUCUU (ssRNA) [Ie_S1_P3E.2_K3.1_C3.2_H3.1_[+1CT]_A3.1_F3.1_T3.2]	4.75
UCUCUUUGUAAUUUUAUCUCUU (ssRNA) [Ib_S1_P5E.1_K5.1_C5.1_H5.1_A5.1_[T5A]_[A7T]_F5.1_T5.1]	5.31
UCUCUUCCUCUCUUGUAUAUAUAUCUCUU (ssRNA) [Ie_S1_P3E.2_K3.1_C3.2_[+-2CTCTC]_H3.1_A3.1_F3.1_T3.2]	7.46
UCUCUUCUUGCUCUUAUAUAUAUCUCUU (ssRNA) [Ie_S1_P3E.2_K3.1_C3.2_H3.1_[+2CTCT]_A3.1_F3.1_T3.2]	824
UCUCUUCUUGUCUAUAUAUAUCUCUU (ssRNA) [Ie_S1_P3E.2_K3.1_C3.2_H3.1_[+2TC]_A3.1_F3.1_T3.2]	844
UCUCUUCUUCCUGUAUAUAUAUCUCUU (ssRNA) [Ie_S1_P3E.2_K3.1_C3.2_H3.1_[+1CCT]_A3.1_F3.1_T3.2]	5.41

Binder	Kd [nM]
UCUCUUCUCUCUCUGUAUAUAUAUCUCUU (ssRNA) [Ie_S1_P3E.2_K3.1_C3.2_[+-1CTCTC]_H3.1_A3.1_F3.1_T3.2]	3.89
UCUCUUCCUCUUUGUAUAUAUAUCUCUU (ssRNA) [Ie_S1_P3E.2_K3.1_C3.2_[+-2CTCT]_H3.1_A3.1_F3.1_T3.2]	4.97
UCUCUUCCCCUUUUGUAUAUAUAUCUCUU (ssRNA) [Ie_S1_P3E.2_K3.1_C3.2_[+-2CCCTT]_H3.1_A3.1_F3.1_T3.2]	5.86
UCUCUUCUUCCUUGUAUAUAUAUCUCUU (ssRNA) [Ie_S1_P3E.2_K3.1_C3.2_[+-2TTCC]_H3.1_A3.1_F3.1_T3.2]	6.09
UCUCUUCUUUUCCUGUAUAUAUAUCUCUU (ssRNA) [Ie_S1_P3E.2_K3.1_C3.2_H3.1_[+1TTCCT]_A3.1_F3.1_T3.2]	5.37
UCUCUUCUCCUCUUGUAUAUAUAUCUCUU (ssRNA) [Ie_S1_P3E.2_K3.1_C3.2_[+-1CCTCT]_H3.1_A3.1_F3.1_T3.2]	3.91
UCUCUUCUUCUCUCGUAUAUAUAUCUCUU (ssRNA) [Ie_S1_P3E.2_K3.1_C3.2_H3.1_[+1CTCTC]_A3.1_F3.1_T3.2]	512
UCUCUUCUCCCUUGUAUAUAUAUCUCUU (ssRNA) [Ie_S1_P3E.2_K3.1_C3.2_[+-1CCCT]_H3.1_A3.1_F3.1_T3.2]	2.61
UCUCUUCUUGCCUUAUAUAUAUCUCUU (ssRNA) [Ie_S1_P3E.2_K3.1_C3.2_H3.1_[+2CCT]_A3.1_F3.1_T3.2]	1510
UCUCUUCUUUCCUUGUAUAUAUAUCUCUU (ssRNA) [Ie_S1_P3E.2_K3.1_C3.2_[+-1TTCCT]_H3.1_A3.1_F3.1_T3.2]	4.2
UCUCUUUGUAAUCUUAUCUCUU (ssRNA) [Ib_S1_P5E.1_K5.1_C5.1_H5.1_A5.1_[T5A]_[A7C]_F5.1_T5.1]	12.1
UCUCUUCUUGUCCUAUAUAUAUCUCUU (ssRNA) [Ie_S1_P3E.2_K3.1_C3.2_H3.1_[+2TCC]_A3.1_F3.1_T3.2]	62.9
UCUCUUCCCUCUUGUAUAUAUAUCUCUU (ssRNA) [Ie_S1_P3E.2_K3.1_C3.2_[+-2CCTC]_H3.1_A3.1_F3.1_T3.2]	7.14
UCUCUUCUCCCUUUGUAUAUAUAUCUCUU (ssRNA) [Ie_S1_P3E.2_K3.1_C3.2_[+-1CCCTT]_H3.1_A3.1_F3.1_T3.2]	6.24
UCUCUUCUUUCUCGUAUAUAUAUCUCUU (ssRNA) [Ie_S1_P3E.2_K3.1_C3.2_H3.1_[+1TCTC]_A3.1_F3.1_T3.2]	261
UCUCUUCUUUCCGUAUAUAUAUCUCUU (ssRNA) [Ie_S1_P3E.2_K3.1_C3.2_H3.1_[+1TCC]_A3.1_F3.1_T3.2]	534
UCUCUUCUUCUCUUGUAUAUAUAUCUCUU (ssRNA) [Ie_S1_P3E.2_K3.1_C3.2_[+-1TCTCT]_H3.1_A3.1_F3.1_T3.2]	5.94
UCUCUUCCCCUUUGUAUAUAUAUCUCUU (ssRNA) [Ie_S1_P3E.2_K3.1_C3.2_[+-2CCCT]_H3.1_A3.1_F3.1_T3.2]	3.73
UCUCUUCUUGCCUAUAUAUAUCUCUU (ssRNA) [Ie_S1_P3E.2_K3.1_C3.2_H3.1_[+2CC]_A3.1_F3.1_T3.2]	1170
UCUCUUCUUCCCUGUAUAUAUAUCUCUU (ssRNA) [Ie_S1_P3E.2_K3.1_C3.2_H3.1_[+1CCCT]_A3.1_F3.1_T3.2]	4.02
UCUCUUCUUGUCUCUAUAUAUAUCUCUU (ssRNA) [Ie_S1_P3E.2_K3.1_C3.2_H3.1_[+2TCTC]_A3.1_F3.1_T3.2]	456
UCUCUUCUUCCUCUGUAUAUAUAUCUCUU (ssRNA) [Ie_S1_P3E.2_K3.1_C3.2_H3.1_[+1CCTCT]_A3.1_F3.1_T3.2]	5.08
UCUCUUCCUUUUGUAUAUAUAUCUCUU (ssRNA) [Ie_S1_P3E.2_K3.1_C3.2_[+-2CTT]_H3.1_A3.1_F3.1_T3.2]	5.14
